Drawing on PMC6160412 (2018), this text covers Kd for two molecules.

Holding throughout (experiment): SPR
A general note: In SPR one partner is held on a chip, and binding of the other changes the refractive index at the surface.

Assay [1] has as its target human LRRTM2 LRR domain, F357Y mutant (human, UniProt O43300 34-371, F357Y).
Assay [2] addresses human LRRTM2 LRR domain, D352A mutant (human, UniProt O43300 34-371, D352A).
A further assay has as its target Neurexin-1β (+S4) (Mus musculus, UniProt P0DI97).

Bounds are passed on as bounds.

Sequence of Neurexin-1β (+S4) (P0DI97 47-392): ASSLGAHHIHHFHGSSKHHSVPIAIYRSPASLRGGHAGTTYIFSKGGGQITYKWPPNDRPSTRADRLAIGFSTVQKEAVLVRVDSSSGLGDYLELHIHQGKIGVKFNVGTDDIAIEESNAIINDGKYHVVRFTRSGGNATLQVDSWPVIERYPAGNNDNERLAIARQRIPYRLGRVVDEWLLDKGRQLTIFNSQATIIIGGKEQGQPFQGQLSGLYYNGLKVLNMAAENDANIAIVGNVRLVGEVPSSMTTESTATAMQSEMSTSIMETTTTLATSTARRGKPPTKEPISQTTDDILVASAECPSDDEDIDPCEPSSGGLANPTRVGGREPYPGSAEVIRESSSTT

B1: human Nrxn1β LNS domain (–S4), wild type (domain or fragment)
chain: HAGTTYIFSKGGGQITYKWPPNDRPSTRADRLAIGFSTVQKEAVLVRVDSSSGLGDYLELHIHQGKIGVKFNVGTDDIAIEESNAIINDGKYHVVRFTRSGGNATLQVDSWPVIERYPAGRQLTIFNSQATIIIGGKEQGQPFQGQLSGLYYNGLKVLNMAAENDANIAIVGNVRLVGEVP
As for B1, the Kd – broadly, the concentration at which binding is half-saturated – in assay [1] was 19.3 µM; in assay [2] it was greater than 34 µM.

B2: LRRTM2 (protein)
chain: CPPKCRCEKLLFYCDSQGFHSVPNATDKGSLGLSLRHNHITALERDQFASFSQLTWLHLDHNQISTVKEDAFQGLYKLKELILSSNKIFYLPNTTFTQLINLQNLDLSFNQLSSLHPELFYGLRKLQTLHLRSNSLRTIPVRLFWDCRSLEFLDLSTNRLRSLARNGFAGLIKLRELHLEHNQLTKINFAHFLRLSSLHTLFLQWNKISNLTCGMDWTWSTLEKLDLTGNEIKAIDLTVFETMPNLKILLMDNNKLNSLDSKILNSLKSLTTVGLSGNLWECSPRVCALASWLGSFQGRWEHSILCHSPDHTQGEDILDAVHGFQLCWNLSTTVTAMATTYRDPTTEYTKISSSSYHVGDKEIPTTAGIAVTTEEHFPEPDNAIFTQRVITGTMALLFSFFFIIFIVFISRKCCPPTLRRIRQCSMIQNHRQLRSQTRLHMSNMSDQGPYNEYEPTHEGPFIIINGYGQCKCQQLPYKECEV
For the molecule B2, in the assay with Neurexin-1β (+S4), the Kd is greater than 80 µM.
